Measurements taken from US20050084449A1.
Positions count from the first letter of the chain named.

B1: anti-TIM-1 mAb 1.37 (antibody, human IgG2, V domains shown)
VH: EVQLVESGGGLVQPGGSLRLSCAASGFTFTNYWMSWVRQAPGKGLEWVANIQQDGSEKYYVDSVRGRFTISRDNAKNSLYLQMNSLRAEDSAVYYCARWDYWGQGTLVTVSS
VL: DIVMTQTPLSSTVILGQPASISCRSSQSLVHSDGNTYLNWLQQRPGQPPRLLIYMISNRFSGVPDRFSGSGAGTDFTLKISRVEAEDVGVYYCMQATESPQTFGQGTKVEIKR
B2: anti-TIM-1 mAb 1.29 (antibody, human IgG2, V domains shown)
VH: QVQLQESGPGLVKPSETLSLTCTVSGGSVSSGGYYWSWIRQPPGKGLEWIGFIYYTGSTNYNPSLKSRVSISVDTSKNQFSLKLSSVTAADAAVYYCARDYDWSFHFDYWGQGTLVTVSS
VL: DIQMTQSPSSLSASIGDRVTITCRASQGIRNDLGWYQQKPGKAPKRLIYAASSLQSGVPSRFSGSGSGTEFTLTISSLQPEDFATYYCLQHNSYPLTFGGGTKVEIKR
B3: anti-TIM-1 mAb 2.61 (antibody, human IgG4, V domains shown)
VH: QVQLVEAGGGVVQPGRSLRLSCAASGFTFRSYGMHWVRQAPGKGLKWVAVIWYDGSNKYYTDSVKGRFTISRDNSKNTLYLQMNSLRAEDTAVYYCVRDYYDNSRHHWGFDYWGQGTLVTVSS
VL: B2 VL with L11R, S12C, I15V, G34A, G66R, T85A, L96P, T97S, G100Q, V104L
B4: anti-TIM-1 mAb 2.70 (antibody, V domains shown)
VH: B3 VH with A7S, T28I, R30S, S31R, Y59L, T61A, V97A
VL: DIVMTQTPLSLPVTPGEPASISCRSSRSLLDSDDGNTYLDWYLQKPGQSPQLLIYTLSYRASGVPDRFSGSGSGTDFTLKISRVEAEDVGVYYCMQRVEFPITFGQGTRLEIKR

Molecular target: TIM-1 antigen (soluble extracellular domain of TIM-1, CG57008-02, with a V5-HIS tag) (human) (UniProt Q96D42)
Assay: BIAcore 2000, mAb captured on goat anti-human surface, TIM-1 antigen injected, 25 C

Row | Binder | Kd
1 | B1 | 2.78 nM
2 | B2 | 3.64 nM
3 | B3 | 1 nM
4 | B4 | 2.71 nM
